Assays:
[1] = substrate: NC(=O)c1ccc[n+]([C@@H]2O[C@H](COP(=O)([O-])OP(=O)(O)OC[C@H]3O[C@@H](n4cnc5c(N)ncnc54)[C@H](O)[C@@H]3O)[C@@H](O)[C@H]2O)c1; test: NAD(P)ase activity by HPLC (kinetics, substrates, metal ions); assay type: biochemical, human; details: other: hSARM1 full length
Protocol: (§1) hSARM1 species were routinely assayed by the NAD/NADH-Glo^TM Assay (Promega) while both Aplysia cyclase and CD38 were assayed by fluorometry using ϵNAD ([Orsomando et al., 2000]). […] Other reagents used in addition to, or in place of those above are detailed in text or in figure legends, for example metal ions, free bases, dinucleotide analogues, mononucleotides, and ribosides. Assays were all carried out at 25°C except for temperature studies. Reactions were stopped by HClO4/K2CO3 and analysed by C18-HPLC as reported ([Mori et al., 2014]). Only the acid labile NADH and NADPH were treated with 1 N NaOH and neutralized using 1:1 vol of 1.73 M KH2CO3 while the highly hydrophobic metabolites vacor, VAD, VMN and VR, were analysed by a modified C18-HPLC method ([Buonvicino et al., 2018]). Reaction products were quantified from peak areas (see Figure 2A) based on coelution with standards (except for cyclic products from NAD analogues that were not available and were attributed based on UV-spectra and retention times as predicted). Rates were calculated as follows. Hydrolysis and cyclization were measured from product generation from the respective individual dinucleotide substrate used, e.g., free and cyclic ADP-ribosyl moieties from NAD (Figure 1B). A basal value for hydrolysis/cyclization was taken as sum of these latter two products. In addition to that value, base exchange or transglycosidation was calculated from the expected dinucleotide analog formed in the presence of the corresponding free base, e.g., AcPyrAD from AcPyr and NAD.
(§2) The kinetic parameters were calculated from initial rates obtained from replicates via best-fitting analysis using the following Equation 1 for CD38 and Aplysia cyclase, or Equation 2 for hSARM1 SAM-TIR, or Equation 3 for hSARM1 full length(Equation 1) V =Vmax[S]/Km+[S]

[2] = substrate: NC(=O)c1ccc[n+]([C@@H]2O[C@H](COP(=O)([O-])OP(=O)(O)OC[C@H]3O[C@@H](n4cnc5c(N)ncnc54)[C@H](O)[C@@H]3O)[C@@H](O)[C@H]2O)c1; test: purified protein, by the assay type; assay type: biochemical; details: other: hSARM1 SAM-TIR, pH 7.5
Protocol: as §1, §2

[3] = substrate: NC(=O)c1ccc[n+]([C@@H]2O[C@H](COP(=O)([O-])OP(=O)(O)OC[C@H]3O[C@@H](n4cnc5c(N)ncnc54)[C@H](O)[C@@H]3O)[C@@H](O)[C@H]2O)c1; test: purified protein, by the assay type; details: other: Aplysia cyclase, substrate as labelled, pH 7.5
Protocol: hSARM1 species were routinely assayed by the NAD/NADH-Glo^TM Assay (Promega) while both Aplysia cyclase and CD38 were assayed by fluorometry using ϵNAD ([Orsomando et al., 2000]). […] Other reagents used in addition to, or in place of those above are detailed in text or in figure legends, for example metal ions, free bases, dinucleotide analogues, mononucleotides, and ribosides. Assays were all carried out at 25°C except for temperature studies. Reactions were stopped by HClO4/K2CO3 and analysed by C18-HPLC as reported ([Mori et al., 2014]). Only the acid labile NADH and NADPH were treated with 1 N NaOH and neutralized using 1:1 vol of 1.73 M KH2CO3 while the highly hydrophobic metabolites vacor, VAD, VMN and VR, were analysed by a modified C18-HPLC method ([Buonvicino et al., 2018]). Reaction products were quantified from peak areas (see Figure 2A) based on coelution with standards (except for cyclic products from NAD analogues that were not available and were attributed based on UV-spectra and retention times as predicted). Rates were calculated as follows. Hydrolysis and cyclization were measured from product generation from the respective individual dinucleotide substrate used, e.g., free and cyclic ADP-ribosyl moieties from NAD (Figure 1B). A basal value for hydrolysis/cyclization was taken as sum of these latter two products. […]

[4] = re-elaborated from Table 1, pH 7.5

B1: human SARM1 full length (Homo sapiens) (protein)
chain: LAVPGPDGGGGTGPWWAAGGRGPREVSPGAGTEVQDALERALPELQQALSALKQAGGARAVGAGLAEVFQLVEEAWLLPAVGREVAQGLCDAIRLDGGLDLLLRLLQAPELETRVQAARLLEQILVAENRDRVARIGLGVILNLAKEREPVELARSVAGILEHMFKHSEETCQRLVAAGGLDAVLYWCRRTDPALLRHCALALGNCALHGGQAVQRRMVEKRAAEWLFPLAFSKEDELLRLHACLAVAVLATNKEVEREVERSGTLALVEPLVASLDPGRFARCLVDASDTSQGRGPDDLQRLVPLLDSNRLEAQCIGAFYLCAEAAIKSLQGKTKVFSDIGAIQSLKRLVSYSTNGTKSALAKRALRLLGEEVPRPILPSVPSWKEAEVQTWLQQIGFSKYCESFREQQVDGDLLLRLTEEELQTDLGMKSGITRKRFFRELTELKTFANYSTCDRSNLADWLGSLDPRFRQYTYGLVSCGLDRSLLHRVSEQQLLEDCGIHLGVHRARILTAAREMLHSPLPCTGGKPSGDTPDVFISYRRNSGSQLASLLKVHLQLHGFSVFIDVEKLEAGKFEDKLIQSVMGARNFVLVLSPGALDKCMQDHDCKDWVHKEIVTALSCGKNIVPIIDGFEWPEPQVLPEDMQAVLTFNGIKWSHEYQEATIEKIIRFLQGRSSRDSSAGSDTSLEGAAPMGPT
notes: Human recombinant SARM1 full length proteins (wild-type and E642A mutant); made in house
B1 was tested. Which Km ([1]; no NMN, pH 7.5) did it give?
The Km was 30.3 ± 5.18 µM.

And the Vmax ([1]; no NMN, pH 7.5)?
Its Vmax is 0.0224 µmol/min/mg.

And the kcat [1, 4]?
Its kcat is 0.03 ± 0.007 s⁻¹.

And the kcat/Km [1, 4]?
The kcat/Km was 1000 ± 350 M⁻¹ s⁻¹.

B2: hSARM1 SAM-TIR (Homo sapiens) (protein)
chain: VPSWKEAEVQTWLQQIGFSKYCESFREQQVDGDLLLRLTEEELQTDLGMKSGITRKRFFRELTELKTFANYSTCDRSNLADWLGSLDPRFRQYTYGLVSCGLDRSLLHRVSEQQLLEDCGIHLGVHRARILTAAREMLHSPLPCTGGKPSGDTPDVFISYRRNSGSQLASLLKVHLQLHGFSVFIDVEKLEAGKFEDKLIQSVMGARNFVLVLSPGALDKCMQDHDCKDWVHKEIVTALSCGKNIVPIIDGFEWPEPQVLPEDMQAVLTFNGIKWSHEYQEATIEKIIRFLQGRSSRDSSAGSDTSLEGAAPMGPT
notes: made in house
How did the Km [2] turn out when B2 was run?
The Km was 69.5 ± 2.31 µM.

What about the Vmax [2] of the same protein?
The Vmax was 0.723 µmol/min/mg.

What about the kcat [2] of the same protein?
Its kcat is 0.448 ± 0.009 s⁻¹.

And the kcat/Km [2]?
The kcat/Km was 6500 ± 350 M⁻¹ s⁻¹.

B3: Aplysia californica ADP ribosyl cyclase (Aplysia californica) (protein)
chain: IVPTRELENVFLGRCKDYEITRYLDILPRVRSDCSALWKDFFKAFSFKNPCDLDLGSYKDFFTSAQQQLPKNKVMFWSGVYDEAHDYANTGRKYITLEDTLPGYMLNSLVWCGQRANPGFNEKVCPDFKTCPVQARESFWGMASSSYAHSAEGEVTYMVDGSNPKVPAYRPDSFFGKYELPNLTNKVTRVKVIVLHRLGEKIIEKCGAGSLLDLEKLVKAKHFAFDCVENPRAVLFLLCSDNPNARECRLAKRFYRIA
For B3, which Km [3] is on record?
The Km was 212 ± 13.7 µM.

And the Vmax [3]?
Its Vmax is 51.4 ± 1.24 µmol/min/mg.

Reference: PMC8844822, “SARM1 is a multi-functional NAD(P)ase with prominent base exchange activity, all regulated bymultiple physiologically relevant NAD metabolites” (iScience, 2022)
